From patent publication US20230091175A1 (SYSMEX, published 2023)
Numbering of substitutions follows the chain as printed.

B1: mouse anti-human IL-6 antibody (clone 44-15), original (unmodified) (Fab, V domains shown, not shown: a dimerising Fc or GST)
VH: DVQLQESGPGLVKPSQTVSLTCTVTGISITTGNYRWSWIRQFPGNKLEWIGYIYYSGAITYNPSLTSRTTITRDTSMNQFFLEMISLTAEDTATYYCARDRYDYAVDFWGQGTSVTVSS
VL: DIQMTQSPASLSASVGETVTITCRSSENIYSFLTWFQQRQGKSPHLLVYYANTLAEGVPSRFSGSGSGTQFSLQINSLQPEDFGTYYCQHHYGTPWTFGGGTRLEIKR
notes: Fab; the light entry holds only the variable domain; a His tag is implied by Ni-NTA purification but not described; also called Anti-IL-6 antibody (clone 44-15)
B2: R4 variant of anti-IL-6 antibody (clone 44-15) (Fab, V domains shown, not shown: a dimerising Fc or GST)
VH: B1 VH
VL: B1 VL with S63R, S65R, S67R, Q70R
notes: Light chain positions 63, 65, 67, 70 (Chothia) changed to Arg; Fab
B3: R3 variant of anti-IL-6 antibody (clone 44-15) (Fab, V domains shown, not shown: a dimerising Fc or GST)
VH: B1 VH
VL: B1 VL with S63R, S65R, S67R
notes: Light chain positions 63, 65, 67 (Chothia) changed to Arg; Fab
B4: R5 variant of anti-IL-6 antibody (clone 44-15) (Fab, V domains shown, not shown: a dimerising Fc or GST)
VH: B1 VH
VL: B1 VL with S63R, S65R, S67R, Q70R, S72R
notes: Light chain positions 63, 65, 67, 70, 72 (Chothia) changed to Arg; Fab
B5: mouse anti-human IL-6 antibody (clone 58-1), original (unmodified) (Fab, V domains shown, not shown: a dimerising Fc or GST)
VH: EVQLQQSGPELVKPGASVKMSCKASGYTFTSYVMHWVKQKPGQGLEWIGYINPYNDGTKYNEKFKGKATLTSDKSSSTAYMELSSLTSEDSAVYYCAREGYGNLERDCWGQGTSVTVSS
VL: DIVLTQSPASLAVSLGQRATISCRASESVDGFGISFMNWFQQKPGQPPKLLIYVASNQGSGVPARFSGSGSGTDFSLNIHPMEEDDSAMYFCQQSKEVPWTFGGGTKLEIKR
notes: The heavy entry is VH-CH1 with part of the hinge; the light entry holds only the variable domain; Purified on Ni-NTA, so a His tag is implied but not described; also called Anti-IL-6 antibody (clone 58-1)
B6: R3 variant of anti-IL-6 antibody (clone 58-1) (Fab, V domains shown, not shown: a dimerising Fc or GST)
VH: B5 VH
VL: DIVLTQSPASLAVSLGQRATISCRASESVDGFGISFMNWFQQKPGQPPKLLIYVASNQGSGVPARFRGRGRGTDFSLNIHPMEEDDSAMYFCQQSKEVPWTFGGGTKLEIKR
notes: Light chain positions 63, 65, 67 (Chothia) changed to Arg; Fab; a His tag is implied by Ni-NTA purification but not described
B7: R4 variant of anti-IL-6 antibody (clone 58-1) (Fab, V domains shown, not shown: a dimerising Fc or GST)
VH: B5 VH
VL: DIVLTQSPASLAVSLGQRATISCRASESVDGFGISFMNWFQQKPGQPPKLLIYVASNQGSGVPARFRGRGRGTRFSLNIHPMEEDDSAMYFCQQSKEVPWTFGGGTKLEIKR
notes: as for B2
B8: R5 variant of anti-IL-6 antibody (clone 58-1) (Fab, V domains shown, not shown: a dimerising Fc or GST)
VH: B5 VH
VL: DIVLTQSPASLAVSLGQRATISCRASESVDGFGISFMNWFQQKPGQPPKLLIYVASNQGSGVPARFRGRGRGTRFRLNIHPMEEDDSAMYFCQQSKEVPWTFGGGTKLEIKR
notes: as for B4
B9: mouse anti-human IL-8 antibody (clone 146-1), original (unmodified) (Fab, V domains shown, not shown: a dimerising Fc or GST)
VH: EVQLVESGGGLVKPGGSLKLSCAASGFTFSSYAMSWVRQTPEKRLEWVATISNGGSYTYYPDSLKGRFTISRDNAKNTLYLQMSSLRSEDTAIYYCARGITGGVYFDYWGQGTTLTVSS
VL: B1 VL with S25A, F32Y, T34A, F36Y, R39K, Y50D, N52E, Q74K, T85S, R103K
notes: Fab; the light entry holds only the variable domain; a His tag is implied by Ni-NTA purification but not described; also called Anti-IL-8 antibody (clone 146-1)
B10: R3 variant of anti-IL-8 antibody (clone 146-1) (Fab, V domains shown, not shown: a dimerising Fc or GST)
VH: B9 VH
VL: DIQMTQSPASLSASVGETVTITCRASENIYSYLAWYQQKQGKSPHLLVYDAETLAEGVPSRFRGRGRGTQFSLKINSLQPEDFGSYYCQHHYGTPWTFGGGTKLEIKR
notes: as for B3
B11: R5 variant of anti-IL-8 antibody (clone 146-1) (Fab, V domains shown, not shown: a dimerising Fc or GST)
VH: B9 VH
VL: B10 VL with Q70R, S72R
notes: as for B4
B12: R4 variant of anti-IL-8 antibody (clone 146-1) (Fab, V domains shown, not shown: a dimerising Fc or GST)
VH: B9 VH
VL: B10 VL with Q70R
notes: as for B2
B13: mouse anti-human IL-8 antibody (clone 166-1), original (unmodified) (Fab, V domains shown, not shown: a dimerising Fc or GST)
VH: EVKLVESGGGLVKPGGSLKLSCAASGFTFNNYAMSWVRQTPEKRLEWVASISSGGNTYYPDSVKGRFTLSRDNARNILYLQMSRLRSEDTAMYYCARDKLRLPNWYFDVWGAGTTVTVSS
VL: DIVLTQSPPSLAVSLGQRATISCKASQSVDYDGDSYMNWYQQKPGQPPKVLIYGASNLESGIPARFSGSGSGTDFTLNIYPVEEEDAATYYCQQSNEDPPTFGGGTKLEIKR
notes: Fab; the light entry holds only the variable domain; a His tag is implied by Ni-NTA purification but not described; also called Anti-IL-8 antibody (clone 166-1)
B14: R4 variant of anti-IL-8 antibody (clone 166-1) (Fab, V domains shown, not shown: a dimerising Fc or GST)
VH: B13 VH
VL: B13 VL with S67R, S69R, S71R, D74R
notes: as for B2
B15: R5 variant of anti-IL-8 antibody (clone 166-1) (Fab, V domains shown, not shown: a dimerising Fc or GST)
VH: B13 VH
VL: B13 VL with S67R, S69R, S71R, D74R, T76R
notes: as for B4
B16: R3 variant of anti-IL-8 antibody (clone 166-1) (Fab, V domains shown, not shown: a dimerising Fc or GST)
VH: B13 VH
VL: B13 VL with S67R, S69R, S71R
notes: as for B3
B17: human anti-IL-4 antibody (PDB: 5FHX), original (unmodified) (antibody, human IgG1, kappa, V domains shown)
VH: AVQLQQSGPELVKPGASVKISCKASGYSFTSYWIHWIKQRPGQGLEWIGMIDPSDGETRLNQRFQGRATLTVDESTSTAYMQLRSPTSEDSAVYYCTRLKEYGNYDSFYFDVWGAGTLVTVSS
VL: DIQMTQSPASLSVSVGDTITLTCHASQNIDVWLSWFQQKPGNIPKLLIYKASNLHTGVPSRFSGSGSGTGFTLTISSLQPEDIATYYCQQAHSYPFTFGGGTKLEIKR
notes: IgG with full heavy and light chains; also called original anti-IL-4 antibody
B18: R3 variant of anti-IL-4 antibody (antibody, human IgG1, kappa, V domains shown)
VH: B17 VH
VL: B17 VL with S63R, S65R, S67R
notes: IgG; light chain positions 63, 65, 67 (Chothia) changed to Arg
B19: R4 variant of anti-IL-4 antibody (antibody, human IgG1, kappa, V domains shown)
VH: B17 VH
VL: B17 VL with S63R, S65R, S67R, G70R
notes: IgG; light chain positions 63, 65, 67, 70 (Chothia) changed to Arg

molecular target: T1, human IL6 protein, His and GST tags (active) (GTX00094-pro: GeneTex, Inc.) (human, UniProt P05231 30-212, limits assumed); assay: SPR (Biacore 8K), antigen immobilized on CM4 chip, antibody as analyte
T1 construct: Bought reagent; not shown: His and GST tags
Protocol: (§1) (4.1) For anti-IL-6 antibody, anti-IL-8 antibody, and anti-IL-12 antibody Affinity of the original antibodies and variants was measured using Biacore (registered trademark) 8K (Cytiva). As antigens, human IL6 protein, His and GST tags (active) (GTX00094-pro: GeneTex, Inc.), interleukin 8 (CXCL8) (100-175: Shenandoah Biotechnology, Inc.), and human IL 12 protein (Recombinant His, C-terminus) (aa23-328) (LS-G134297-50: LSBio, Inc.) were used. The antigen was immobilized to a sensor chip for Biacore (registered trademark) Series S Sensor Chip CM4 (GE Healthcare). Each antibody solution obtained in the above (3.2) was diluted to prepare an antibody solution for measurement. The concentration of each antibody in the antibody solution for measurement was as follows. In the solutions of the anti-IL-6 antibody (58-1) and its R3, R4 and R5 variants, the concentration was 100 nM, 50 nM, 25 nM, 12.5 nM and 6.25 nM. In the solution of the anti-IL-6 antibody (44-15), the concentration was 100 nM, 50 nM, 25 nM, 12.5 nM and 6.25 nM, and in the solutions of its R3, R4 and R5 variants, the concentration was 50 nM, 25 nM, 12.5 nM, 6.25 nM and 3.13 nM. In the solutions of the anti-IL-8 antibody (166-1) and its R3, R4 and R5 variants, the concentration was 100 nM, 50 nM, 25 nM, 12.5 nM and 6.25 nM. In the anti-IL-8 antibody (146-1) solution, the concentration was 100 nM, 50 nM, 25 nM, 12.5 nM and 6.25 nM, in the solution of its R3 variant, the concentration was 50 nM, 25 nM, 12.5 nM, 6.25 nM and 3.13 nM, and in the solutions of its R4 and R5 variants, the concentration was 25 nM, 12.5 nM, 6.25 nM, 3.13 nM and 1.56 nM. In the anti-IL-12 antibody solution, the concentration was 50 nM, 25 nM, 12.5 nM, 6.25 nM and 3.13 nM, in the solution of its R3 variant, the concentration was 25 nM, 12.5 nM, 6.25 nM, 3.13 nM and 1.56 nM, and in the solution of its R4 variant, the concentration was 12.5 nM, 6.25 nM, 3.13 nM, 1.56 nM and 0.78 nM.
(§2) The antibody solutions for measurement at each concentration were delivered to Biacore (registered trademark) 8K (Cytiva) (association time of 120 seconds and dissociation time of 1200 seconds). Measurement data was analyzed using Biacore (registered trademark) Evaluation software, and the data on the affinity of each antibody for an antigen was obtained.

Binder	Kd
B1	20.4 nM
B2	8.38 nM
B3	7.16 nM
B4	4.4 nM
B5	0.198 nM
B6	0.0812 nM
B7	0.0472 nM
B8	0.0279 nM

molecular target: T2, interleukin 8 (CXCL8) (100-175: Shenandoah Biotechnology, Inc.) (UniProt P10145 28-99); assay: as above
T2 construct: the antibodies tested are mouse anti-human IL-8 antibodies; also called IL-8
T2 sequence (looked up): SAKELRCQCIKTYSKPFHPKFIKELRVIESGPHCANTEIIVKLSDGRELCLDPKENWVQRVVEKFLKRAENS
Protocol: as §1, §2

Binder	Kd
B9	15.3 nM
B10	5.8 nM
B11	2.4 nM
B12	3.14 nM
B13	1.64 nM
B14	0.595 nM
B15	0.389 nM
B16	1.17 nM

molecular target: T3, animal free recombinant human IL-4 (AF-200-04: Peprotech, Inc.) (human, UniProt P05112 25-153); assay: ELISA; affinity ratio with the original antibody as 1.0
T3 construct: Bought reagent
T3 sequence (looked up): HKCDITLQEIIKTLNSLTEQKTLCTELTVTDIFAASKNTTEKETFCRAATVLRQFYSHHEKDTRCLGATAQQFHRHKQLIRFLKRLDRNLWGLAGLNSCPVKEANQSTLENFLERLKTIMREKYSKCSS
Protocol: (§3) Affinity of the original anti-IL-4 antibody and variants was measured by ELISA method. As an antigen, an animal free recombinant human IL-4 (AF-200-04: Peprotech, Inc.) was used. The IL-4 was diluted with 1% BSA/TBS to prepare an antigen solution (5 μg/mL). Each of the original anti-IL-4 antibody, R3 variant and R4 variant was diluted with 1% BSA/TBS to prepare an antibody solution (1000 ng/mL, 250 ng/mL, 62.5 ng/mL, 15.63 ng/mL, 3.91 ng/mL, 0.98 ng/mL, and 0.244 ng/mL). As a detection antibody, an HRP-labeled anti-human IgG antibody (Bethyl Laboratories) was used. The detection antibody was diluted with 1% BSA/TBS to prepare a detection antibody solution (100 ng/mL).
(§4) The antigen solution was dispensed at 50 μL per well into a 96 well plate for ELISA (Thermo Fisher Scientific), and the plate was incubated at 4° C. overnight. The plate was washed 3 times with 200 μL of a washing solution per well (0.05% Tween 20-containing TBS). A blocking solution (1% BSA-containing TBS) was dispensed at 250 μL per well, and the plate was incubated at 4° C. overnight. The blocking solution was removed, the […] solution was dispensed at 50 μL of antibody solution per well into the plate, and the plate was incubated at room temperature for 15 minutes. After washing the plate 3 times with a washing solution, the detection antibody solution was dispensed at 50 μL per well, and the plate was incubated at room temperature for 1 hour. After washing the plate 3 times with a washing solution, a substrate solution (Seracare) was dispensed at 100 μL per well into the plate, and the absorbance at 450 nm was measured with a plate reader SpectraMax 190 Microplate Reader (Molecular Devices, LLC.).

Binder	EC50 ratio
B17	1
B18	1.7
B19	1.7

molecular target: T1, human IL6 protein, His and GST tags …; assay: SPR (Biacore 8K); affinity ratio with the original antibody as 1.0
Protocol: as §1, §2

Binder	KD ratio
B1	1
B2	2.4
B3	2.9
B4	4.6
B5	1
B6	2.4
B7	4.2
B8	7.1

molecular target: T2, interleukin 8 (CXCL8) (100-175: …); assay: as above
Protocol: as §1, §2

Binder	KD ratio
B9	1
B10	2.6
B11	6.4
B12	4.9
B13	1
B14	2.8
B15	4.2
B16	1.4

molecular target: T3, animal free recombinant human IL-4 …; assay: ELISA, IL-4 coated on plate, HRP anti-human IgG detection
Protocol: as §3, §4

Binder	EC50
B17	0.304 µg/mL
B18	0.18 µg/mL
B19	0.176 µg/mL
